In PMC6683498, “The conserved actinobacterial transcriptional regulator FtsR controls expression of ftsZ and further target genes and influences growth and cell division in Corynebacterium glutamicum”:
One block for each molecule: values may come before it.

How the values were obtained:
[1] = biological target: T1, FtsR-Strep (Corynebacterium glutamicum ATCC13032) (UniProt Q8NQJ2); experiment: competition; settings: EMSA: 10 mM Tris-HCl pH 7.5, 30 mM NaCl, 1.5 mM Na2EDTA, room temperature, 30 min; 15% native PAGE in 1x TBE (competition EMSA: 10% gel)
T1 sequence: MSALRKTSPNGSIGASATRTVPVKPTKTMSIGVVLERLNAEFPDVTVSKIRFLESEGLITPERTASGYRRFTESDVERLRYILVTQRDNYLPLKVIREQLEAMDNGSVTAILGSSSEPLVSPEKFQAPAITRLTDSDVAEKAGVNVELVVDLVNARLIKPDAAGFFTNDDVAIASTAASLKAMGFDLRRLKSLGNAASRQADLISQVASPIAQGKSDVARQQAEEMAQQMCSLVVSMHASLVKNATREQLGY

[2] = biological target: T1, FtsR-Strep (Corynebacterium glutamicum ATCC13032); experiment: EMSA; settings: EMSA: 10 mM Tris-HCl pH 7.5, 30 mM NaCl, 1.5 mM Na2EDTA, room temperature, 30 min; 15% native PAGE in 1x TBE (competition EMSA: 10% gel)
[3] = biological target: FtsR-Strep (FtsR, Cg1631, of Corynebacterium glutamicum ATCC13032 with C-terminal StrepTag-II) (Corynebacterium glutamicum ATCC13032); experiment: SEC; affinity-purified FtsR-Strep on Superdex 200 Increase 10/300 GL, buffer W (50 mM Tris-HCl, 250 mM NaCl, pH 7.5), 0.6 mL/min; compared to standard proteins
[4] = biological target: T2, FtsR-Strep (Corynebacterium glutamicum ATCC13032, UniProt Q8NQJ2 1-252); experiment: EMSA; 1 uM DNA; complete shift at 2-fold molar excess of dimer; EMSA: 10 mM Tris-HCl pH 7.5, 30 mM NaCl, 1.5 mM Na2EDTA, room temperature, 30 min; 15% native PAGE in 1x TBE (competition EMSA: 10% gel); settings: protein: recombinant; chain copies: 2; blunt
T2 sequence: T1 sequence

Molecule: AGTGCTTCCTGCGGTTATTGCTGTAATCAACGCAATTAAAGCGCAAGATGCGCAGATGACAGAAAGTATCCAGGTAGTGGAAGCTCCGGATCAATTTGATATCTTGCTGAAAATGAATGATGGCCGGGAAATCTACTGGGGATCCTCGGAAAACAACCACGATAAAGCGGTGGCAATGTCGACTGTTTTGAAGCGGGAAGGCCAACGTTGGAACATTAGCTCACCCTCAATGGTGACAGTCCGCTAAAGTGGCTGGGTAG (double strand)
binding [1]: no binding

Molecule: AGTTCCGGTTCACCCGTTTCCACAACGCGTTTGCCCACCTCAACAACCCTAAAGTAAAGGTTGAGGGTAGCGACACGCCGCTGTAAATGTCCGACACATTGACGTGTTTTTCGCACAAGATATATGTCAGCCGGATTAACACTTTTAGATAAGCTCTCACAGTGCTGACTGCTTATCTGAGATGAAAATAAAAGCAAAATTTTTTTTAGTATCAACTCTTCGAAAGGCGAGACATCGACAATGACCTCACCGAACAACTACCTCGCCAAGA (double strand) [ftsZ promoter 271-bp fragment, Cy3]
binding [2]: binds

Molecule: AGTTCCGGTTCACCCGTTTCCACAACGCGTTTGCCCACCTCAACAACCCTAAAGTAAAGGTTGAGGGTAGCGACACGCCGCTGTAAATGTCCGACACATTGACGTGTTTTTCGCACAAGATATATGTCAGCCGGATTAACACTTTTAGATAAGCTCTCACAGTGCTGACTGCTTATCTGAGATGAAAATAAAAGCAAAATTTTTTTTAGTATCAACTCTTCGAAAGGCGAGACATCGACAATGACCTCACCGAACAACTACCTCGCCAAGA (double strand) [ftsZ promoter 271-bp fragment, unlabeled specific competitor]
binding [1]: binds

stoichiometry N [3]: 2
Molecule: FtsR-Strep (FtsR, Cg1631, of Corynebacterium glutamicum ATCC13032 with C-terminal StrepTag-II) (natural protein)

B1: ftsZ promoter 30-bp oligo (dsDNA)
DNA 1: ACAACCCTAAAGTAAAGGTTGAGGGTAGCG
DNA 2: CGCTACCCTCAACCTTTACTTTAGGGTTGT
binding result [4]: binds
